# Laboratory results reported in patent US20240327460A1, “NORA INHIBITORS AND METHODS OF USE” (priority 2021, published 2024).
# Residue numbers refer to the chain shown, from its start. In names and notes the source's numbering stands. Like-named read-outs stand apart in the source and are kept apart here.
# T1: S. aureus NorA with a carboxy-terminal decahistidine tag, purified (Staphylococcus aureus, UniProt Q5HHX4 1-388)
# T1 sequence: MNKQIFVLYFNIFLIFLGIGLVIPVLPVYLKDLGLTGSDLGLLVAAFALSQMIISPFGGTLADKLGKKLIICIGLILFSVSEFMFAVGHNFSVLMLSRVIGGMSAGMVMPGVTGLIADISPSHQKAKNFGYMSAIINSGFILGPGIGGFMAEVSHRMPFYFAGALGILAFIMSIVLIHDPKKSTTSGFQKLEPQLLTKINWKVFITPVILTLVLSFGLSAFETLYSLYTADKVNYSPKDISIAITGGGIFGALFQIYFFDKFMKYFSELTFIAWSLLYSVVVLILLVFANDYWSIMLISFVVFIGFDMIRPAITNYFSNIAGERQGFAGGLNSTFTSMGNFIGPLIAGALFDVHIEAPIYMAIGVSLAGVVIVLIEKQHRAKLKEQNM
# T2: NorA (Staphylococcus aureus, UniProt Q5HHX4)
# T2 construct: made in house; host or cells: C43 (DE3) E. coli
# T2 sequence (Q5HHX4 whole entry, looked up): T1 sequence
# T3: S. aureus NorA with a carboxy-terminal decahistidine tag, purified (Staphylococcus aureus), Q5HHX4
# T3 chain: T1 sequence
# T4: Native NorA of MRSA (USA300 strain JE2) (Staphylococcus aureus), Q5HHX4
# T4 chain: T1 sequence
# B1: Fab36 (Fab, V domains shown)
# VH: EVQLVESGGGLVQPGGSLRLSCAASGFTFSSSSIHWVRQAPGKGLEWVASISSSSGSTSYADSVKGRFTISADTSKNTAYLQMNSLRAEDTAVYYCARYSRYYYYAWRVGGYWGGLDYWGQGTLVTVSS
# VL: DIQMTQSPSSLSASVGDRVTITCRASQSVSSAVAWYQQKPGKAPKLLIYSASSLYSGVPSRFSGSRSGTDFTLTISSLQPEDFATYYCQQSSSSLITFGQGTKVEIKR
# notes: also called N3-36
# B2: Fab36: synthetic antigen-binding fragment binding NorA; CDRH3 SEQ ID NO: 7; VH SEQ ID NO: 32, VL SEQ ID NO: 33 (antibody, V domains shown)
# VH: B1 VH
# VL: DIQMTQSPSSLSASVGDRVTITCRASQSVSSAVAWYQQKPGKAPKLLIYSASSLYSGVPSRFSGSRSGTDFTLTISSLQPEDFATYYCQQSSSSLITFGQGTKVEIKRTV
# modifications: NorA Antibody N3-36, Heavy Chain Variable Region; NorA Antibody N3-36, Light Chain Variable Region
# B3: Fab36^R134A (antibody, V domains shown)
# VH: B1 VH with R108A
# VL: B2 VL
# B4: Fab36^W133A (Fab, V domains shown)
# VH: B1 VH with W107A
# VL: B1 VL
# B5: Fab36^R134A (Fab, V domains shown)
# VH: B1 VH with R108A
# VL: B1 VL
# B6: Fab25: synthetic antigen-binding fragment binding NorA; CDRH3 SEQ ID NO: 6; VH SEQ ID NO: 30, VL SEQ ID NO: 31 (antibody, V domains shown)
# VH: EVQLVESGGGLVQPGGSLRLSCAASGFTFSSSSIHWVRQAPGKGLEWVASISSSSGSTSYADSVKGRFTISADTSKNTAYLQMNSLRAEDTAVYYCARWETGYYPYWRMYGFYWALDYWGQGTLVTVSS
# VL: B2 VL
# modifications: NorA Antibody N3-25, Heavy Chain Variable Region; NorA Antibody N3-25, Light Chain Variable Region
# How the values were obtained:
# MRSA = type: cell-based, Staphylococcus aureus; settings: 12.5 μg/ml norfloxacin
# Protocol: To test the effects of peptides, overnight cultures of wild-type MRSA and MRSA^ΔnorA in TSB media were diluted 1:1,000 in TSB with varying concentrations of peptides, in the presence or the absence of norfloxacin (12.5 μg/ml). All the peptide concentrations contained equal amount of the DMSO vehicle. OD600nm was measured as a function of time in a BioScreen C device at 37° C. with shaking between measurements every 15 min. Three independent experiments were acquired; reported errors reflect the standard deviation among the independent experiments.
# [1] = target: T1, S. aureus NorA with a carboxy-terminal …
# [2] = target: T1, S. aureus NorA with a carboxy-terminal …; experiment: MST
# NorA [3] = target: T2, NorA; experiment: Inhibition of NorA by Fabs in E. coli (co-expression growth inhibition assay); type: cell-based, S. aureus; settings: E. coli co-expressing NorA and Fab; for E. coli growth inhibition in the presence of norfloxacin: 1.2 μg/ml norfloxacin, arabinose-induced Fab, OD600nm; for E. coli growth inhibition in the absence of norfloxacin: no norfloxacin
# From the text: NorA was encoded in a pTrcHis2C plasmid (ampicillin resistance) with a C-terminal myc-tag (Yu et al., “NorA Functions as a Multidrug Efflux Protein in Both Cytoplasmic Membrane Vesicles and Reconstituted Proteoliposomes,” J Bacteriol 184:1370-1377 (2002), which is hereby incorporated by reference in its entirety), while Fabs were cloned in a pBAD33 plasmid (gentamicin resistance) (Jimenez et al., “Genetics and Proteomics of Aeromonas salmonicida Lipopolysaccharide Core Biosynthesis,” J Bacteriol 191:2228-2236 (2009), which is hereby incorporated by reference in its entirety) with a C-terminal Avi-tag on the heavy chain of the Fab. Competent Top10 E. coli were co-transformed with vectors containing NorA and Fabs (Fab25, Fab36, or Fabcontrol) and grown on LB agar plates infused with carbenicillin and gentamicin. For time dependent growth curves, a single colony from the transformation was inoculated into TBG media in the presence of carbenicillin and gentamicin. The culture was grown to saturation for ˜20 hr at 30° C. Cultures were diluted by 300-fold into fresh TBG media containing carbenicillin and gentamicin, norfloxacin (0 or 1.2 μg/ml), and arabinose (0%, 0.0001%, 0.0005%, 0.0025%, 0.01%, 0.05%, 0.1%, 0.2%, 0.4%, or 0.8%). OD600nm was measured as a function of time in a BioScreen Pro C device at 30° C. with shaking between measurements every 15 min. Four independent experiments were acquired with two technical replicates per experiment; reported errors reflect the standard deviation among the experiments. Immunoblot (IB) analyses were performed on E. coli lysates co-expressing NorA and Fabs following 24 hr of growth in TBG media in the absence of norfloxacin. Primary antibodies at 1:1,000 dilutions detected the C-terminal myc tag on NorA (Genscript) and the C-terminal Avi tag on the heavy chain of the Fab (Genscript). IB analyses were repeated two independent times.
# The insertion of Fab CDRH3 loops into the substrate binding pocket of NorA, as observed in the cryo-EM structures, afforded the expectation that Fab binding would inhibit antibiotic efflux (FIGS. 1A-1D, 4G). […] Since NorA is located within the inner membrane and confers norfloxacin resistance to E. coli (FIG. 6D), growth inhibition was assessed by co-expressing Fabs in the periplasm to allow access to the extracellular face of NorA. Growth curves (OD600 nm vs. time) were quantified with or without norfloxacin and with variable concentrations of arabinose for inducing Fab expression.
# NorA [4] = target: T2, NorA; experiment: NorA pull-down from E. coli co-expressing NorA and Fabs, immunoblot; type: binding, S. aureus; settings: co-expression with 0.2% arabinose
# NorA [5] = target: T2, NorA; experiment: Microscale thermophoresis (MST) binding of fluorescently labelled Fabs to NorA in PMAL-C8 amphipol; set-up: species or system S. aureus; settings: labelled Fab 40 nM
# Protocol: Amphipol-purified NorA underwent an additional round of SEC to remove free amphipol. Purified Fabs were prepared as described above and labelled with a primary amine-reactive 647 nm fluorophore (Nanotemper) according to the manufacturer's instructions. Efficient labelling was verified spectroscopically by measuring absorbance at 280 and 650 nm. Microscale thermophoresis (MST) experiments were performed on a Monolith NT.115 Pico instrument (Nanotemper Technologies). Labelled Fab at 40 nM final concentration was mixed with NorA in 20 mM Tris pH 7.0, 100 mM NaCl, and 0.025% (w/v) Tween-20. All samples were incubated for 15 min and loaded into premium glass capillaries. The normalized fluorescent signal (Fnorm) was plotted as a function of ligand concentration and fit with a non-linear sigmoidal regression model (GraphPad Prism) using a Hill slope equal to 1.0 to obtain the Kd values. The error in Kd values for Fab25 (1.2±0.7 μM) and Fab36 (140±20 nM) represent the average and standard deviation of two independent runs with three replicates per independent run. The error range in the Kd value for Fab36^W133A (2 to 4 μM) corresponds to the 95% confidence interval of the non-linear fit. […] MST binding experiments with Fab36^W133A and Fab36^R134A were collected with three replicates each.
# [6] = target: T1, S. aureus NorA with a carboxy-terminal …; remark: listed apart in the source
# [7] = target: T1, S. aureus NorA with a carboxy-terminal …; experiment: MST; range is the 95% confidence interval of the non-linear fit
# [8] = target: T3, S. aureus NorA with a carboxy-terminal …
# [9] = target: T4, Native NorA of MRSA (USA300 strain JE2) …; experiment: cell-based or functional assay
# [10] = target: T3, S. aureus NorA with a carboxy-terminal …
molecule,measurement,setting,value
"NH2-YYYYAWEVGGYWR-CONH2 (H-YYYYAWEVGGYWR-NH2) [NPI-2, control peptide substituting a glutamate for the arginine residue in the tryptophan-arginine motif, reference compound]",growth arrest of MRSA in the presence of norfloxacin,MRSA,displayed no growth arrest of MRSA
B1,Kd,[1],140 nM
same,fold tighter binding affinity against Fab25,[2],~9 fold
B2,E. coli growth inhibition in the presence of norfloxacin,NorA [3],strongly attenuated E. coli growth in an arabinose-dependent manner
same,E. coli growth inhibition in the absence of norfloxacin,NorA [3],no growth inhibition
same,Fab in elution fraction of purified NorA,NorA [4],contained the Fabs as detected through immunoblotting
B3,Kd,NorA [5],> 14000 nM
B4,Kd,[6],2800 nM
same,Kd,[7],2000 to 4000 nM
same,fold reduced binding affinity against Fab36,[2],~20 fold
B5,fold reduced binding affinity against Fab36,[2],> 100 fold
"H-YYYYAWRVGGYWR-NH2 [NPI-1 (NorA peptide inhibitor), NH2-…-CONH2]",EC50,[8],6290 nM
same,"IC50 of dose-dependent growth inhibition of MRSA in the presence of norfloxacin (12.5 µg/ml), 10 hr timepoint",[9],720 nM
same,IC50 (read off the curve),[10],7000 nM
B6,Kd,NorA [5],1200 ± 700 nM
same,E. coli growth inhibition in the presence of norfloxacin,NorA [3],"showed inhibition of NorA, albeit to a lesser extent than for Fab36"
same,E. coli growth inhibition in the absence of norfloxacin,NorA [3],no growth inhibition
same,Fab in elution fraction of purified NorA,NorA [4],contained the Fabs as detected through immunoblotting
